According to patent publication US10407662B2, “Method of culturing pluripotent stem cell, and polypeptide to be used therefor” (FUJIFILM Corporation, priority 2012, dated 2019):

Experiments:
[1] = Evaluation of adsorptivity to culture plate (OPA fluorescence); assay type: physicochemical; conditions: FIG. 1; for adsorptivity to a plate: 0 to 200 pmol/cm^2, 37° C. 2 hours, washed with PBS twice
Method: Each polypeptide obtained by the above-described method was diluted with a predetermined buffer so as to be added to wells at a predetermined final concentration of from 0 to 200 pmol/cm^2, and the resultant was aliquoted in 64 μL to a 96-well plate made of polystyrene and treated with plasma (Tissue Culture-Treated, Falcon). Each polypeptide was adsorbed to the plate by incubation at 37° C. for 2 hours, and was thereafter washed with PBS twice, to obtain a surface coated with each of the polypeptides of from RCP-1 to RCP-16.
To surfaces coated with RCP-1, and from RCP-11 to RCP-16 among the polypeptide-coated surfaces obtained as described above, 64 μL of each of boric acid buffer and 1 N NaOH was applied, and incubated at 80° C. and a humidity of 100% for 24 hours. After air-cooling, 75 μL of boric acid buffer was added to each well, and 50 μL of reaction liquid in which an OPA (o-phthalaldehyde: Wako Pure Chemical Industries, Ltd.)/methanol solution (160 mg/ml) and an NAC (N-acetyl-L-cysteine: Wako Pure Chemical industries, Ltd.)/boric acid buffer solution (2 mg/ml) were mixed at 1:100 (mass ratio) was further added. After incubation at 40° C. for 30 minutes, the fluorescence intensity thereof was measured (excitation of 355 nm/fluorescence of 486 nm) using an ENVISION MULTI-LABEL COUNTER (PerkinElmer Inc.). A calibration curve was separately made from each polypeptide solution, to calculate an amount of adsorption. In FIG. 1, a black rhombus, a black tetragon, a black triangle, a black circle, a white rhombus, a white tetragon, and a white triangle represent RCP-1, RCP-11, RCP-12, RCP-13, RCP-14, RCP-15, and RCP-16, respectively.

human iPS cells [2] = experiment: Cell Adhesiveness Evaluation 2 (synthetic peptide inhibition of cell adhesion to natural vitronectin); assay type: cell-based; conditions: 100 μM synthetic peptide
Method: Polypeptides listed in Table 7 were synthesized by Emoc solid phase synthesis. A surface to which natural vitronectin was adsorbed at a concentration of 130 pmol/m^2, and thereafter, a cell suspension to which 100 μM of the above-described synthetic peptide was added was seeded at a rate of 30,000 cells/well. The number of adherent cells after 24 h post seeding was calculated by the same technique as in <Cell Adhesiveness Evaluation 1>.

[3] = Presence or absence of aggregation after dialysis; assay type: physicochemical; conditions: after stepwise dialysis removing urea
Method: For from RCP-1 to RCP-10, and RCP-17, each polypeptide solution after the purification was dialyzed using a SLIDE-A-LIZER (3.5K MWCO). A dialysis external liquid was based on a dialysis buffer (PBS, 1.5 M NaCl, 0.5 M L-arginine, 1 mM EDTA, pH 7.4), and urea was removed by stepwise dialysis. The concentration of an end dialysis product was calculated at an absorbance of 280 nm using a NANODROP (Thremo Fisher Scientific Inc.).
In addition, the presence or absence of aggregation was evaluated by G, A, and B below.
G: Formation of an aggregate is not observed.
A: Formation of particles having a particle diameter of around 100 nm is observed.
B: Formation of visible aggregation with a particle diameter of 1 mm or more is observed.

human iPS cells [4] = experiment: Proliferation Evaluation of iPS cells on polypeptide-coated plate; assay type: cell-based; conditions: for The Number (%) of Cells after 3 Days: 5000 cells/well
Method: The iPS cells collected in the same manner as in <Cell Adhesiveness Evaluation 1>described above were seeded on a 96-well plate, to which RCP-1, RCP-11, and the natural human vitronectin were adsorbed, at a rate of 250 cells/well, and were cultured in a 5% CO2 incubator at 37° C. for 8 days. The number of adherent cells after each lapse of time was measured by the same method as in <Cell Adhesiveness Evaluation 1> described above, to obtain proliferation curves, The proliferation curves were indicated in FIG. 2. In FIG. 2, a black rhombus represents an example in which RCP-1 was used, while a black tetragon represents an example in which RCP-11 was used.
Similarly, each of samples from […] was prepared so as to have an addition concentration listed in Table 8 with each of from RCP-1 to RCP-10, and RCP-17, and Human Recombinant Laminin-511 as a reference, was seeded on a 96-well plate, to which each polypeptide was adsorbed, at a rate of 5000 cells/well in the same manner as in<Cell Adhesiveness Evaluation 1> described above, and was cultured in a CO2 incubator at 37° C. for 3 days. The number of cells after the 3 days was measured by the same method as in <Cell Adhesiveness Evaluation 1> described above.

human iPS cells [5] = experiment: Cell Adhesiveness Evaluation 3 (RCP-1 addition amount series); assay type: cell-based; conditions: adding not less than 125 pmol/cm^2
Method: Cell adhesiveness was evaluated in the same manner as in <Cell Adhesiveness Evaluation 1> except that RCP-1 was adjusted with PBS to have a concentration of from 125 pmol/cm^2 to 1000 pmol/cm^2 to be used. In Table 9, cell adhesion rates were relative values in a case in which a cell adhesion rate to a cultivation container to which natural vitronectin was adsorbed at a concentration of 130 pmol/cm^2 was regarded as 100. n=3.

human iPS cells [6] = experiment: Evaluation of Maintenance of Undifferentiation (colony form, NANOG staining); assay type: cell-based
Method: iPS cells collected in the same manner as in <Cell Adhesiveness Evaluation 1> described above were suspended in TESR2. Induced pluripotent stem cells (iPS cells) were seeded on a 6-well plate (Tissue Culture-Treated, Falcon) to which each of the sample 1, the sample 2, the sample 5, the sample 6, and the sample 7 used in <Cell Adhesiveness Evaluation 1> described above was adsorbed in the same manner as in <Cell Adhesiveness Evaluation 1>, and were cultured in a CO2 incubator at 37° C. The culture medium was replaced by a fresh culture medium every day except the next day after the seeding. Subculture was performed by the same method as mentioned above every six days.
The cells were cultured under these conditions for 1 month, thereafter immobilized with 4% paraformaldehyde, and made to have membrane permeability enhanced with 1% Triton-X/PBS. Blocking treatment was performed with an Image IT Signal Enhancer (Invitrogen), followed by adding an anti-human NANOG antibody (AF1997, R&D Systems, Inc), ALEXA FLUOR 555-CONJUGATE rabbit anti-goat IgG antibody (Invitrogen), and DAPI (Dojindo Laboratories), by performing labeling, and by photographing the cells with a fluorescence microscope.
In each of FIG. 3 and FIG. 4, “A”, “B”, “C” “D”, and “E” show iPS cells cultured on RCP-1, iPS cells cultured on RCP-11, iPS cells cultured on the natural human vitronectin, iPS cells cultured on rinaminin-5, and iPS cells cultured on rLaminin-511, respectively. Scale bar: 100 μm. In FIG. 3, overall colony images are shown in the left column, while magnified images are shown in the right column; and in FIG. 4, DAPI-stained images are shown in the left column while anti-NANOG antibody-stained images are shown in the right column. Scale bars in FIGS. 3 and 4: 200 μm.

## RCP-14: comparative recombinant polypeptide, GPLG + human vitronectin positions 1-55 (GPLGDQESCKGRCTEGFNVDKKCQCDELCSYYQSCCTDYTAECKPQVTRGDVFTMPEDE; Synthetic Peptide RCP-14) [reference compound]
[1]
  adsorption amount relative to that of the polypeptide containing SEQ ID NO:2: ¼
  adsorptivity to a plate: inadequate as an adsorbent to a culture plate

## TAECKPQVTRGDVFTMPEDE [Peptide-6]
Human iPS cells [2]
  inhibition of cell adhesion to natural vitronectin (in words): significantly inhibited

## TAECKPQVTRGEVGTMPEDE (TAECKPQVTRGEVFTMPEDE) [Peptide-8]
Human iPS cells [2]
  inhibition of cell adhesion to natural vitronectin (in words): adhesion inhibition did not occur

B1: RCP-16: comparative recombinant polypeptide, GPLG + human vitronectin positions 269-459 (protein)
chain: GPLGPSQEECEGSSLSAVFEHFAMMQRDSWEDIFELLFWGRTSAGTRQPQFISRDWHGVPGQVDAAMAGRIYISGMAPRPSLAKKQRFRHRNRKGYRSQRGHSRGRNQNSRRPSRATWLSLFSSEESNLGANNYDDYRMDWLVPATCEPIQSVFFFSGDKYYRVNLRTRRVDTVDPPYPRSIAQYWLGCPAPGHL
modifications: Synthetic Peptide RCP-16
[1]
  adsorptivity to a plate: favorable adsorptivity to a plate, equivalent to that of RCP-11

B2: RCP-13: comparative recombinant polypeptide, GPLG + human vitronectin positions 1-55, 56-129 (protein)
chain: GPLGDQESCKGRCTEGFNVDKKCQCDELCSYYQSCCTDYTAECKPQVTRGDVFTMPEDEYTVYDDGEEKNNATVHEQVGGPSLTSDLQAQSKGNPEQTPVLKPEEEAPAPEVGASKPEGIDSRPETLHPGRPQP
modifications: Synthetic Peptide RCP-13
[1]
  adsorption amount relative to that of the polypeptide containing SEQ ID NO:2: ¼
  adsorptivity to a plate: inadequate as an adsorbent to a culture plate

B3: RCP-9: recombinant polypeptide, Met + human vitronectin positions 1-55, 269-373, 374-389, C274S (protein)
chain: MDQESCKGRCTEGFNVDKKCQCDELCSYYQSCCTDYTAECKPQVTRGDVFTMPEDESQEESEGSSLSAVFEHFAMMQRDSWEDIFELLFWGRTSAGTRQPQFISRDWHGVPGQVDAAMAGRIYISGMAPRPSLAKKQRFRHRNRKGYRSQRGHSRGRNQNSRRPSRATWLSLFSSE
modifications: Synthetic Peptide RCP-9
notes: recombinant polypeptide, Met + human vitronectin positions 1-55, 269-373, 374-389, C274S
[3]
  Aggregation: B (Formation of visible aggregation with a particle diameter of 1 mm or more is observed.)
Human iPS cells [4]; addition amount 20 μg/cm^2
  The Number (%) of Cells after 3 Days: 105.8%

B4: RCP-10: recombinant polypeptide, Met + human vitronectin positions 1-55, 269-373, 374-399, C274S (protein)
chain: MDQESCKGRCTEGFNVDKKCQCDELCSYYQSCCTDYTAECKPQVTRGDVFTMPEDESQEESEGSSLSAVFEHFAMMQRDSWEDIFELLFWGRTSAGTRQPQFISRDWHGVPGQVDAAMAGRIYISGMAPRPSLAKKQRFRHRNRKGYRSQRGHSRGRNQNSRRPSRATWLSLFSSEESNLGANNYD
modifications: Synthetic Peptide RCP-10
notes: recombinant polypeptide, Met + human vitronectin positions 1-55, 269-373, 374-399, C274S
[3]
  Aggregation: B (Formation of visible aggregation with a particle diameter of 1 mm or more is observed.)
Human iPS cells [4]; addition amount 20 μg/cm^2
  The Number (%) of Cells after 3 Days: 101.9%

B5: RCP-15: comparative recombinant polypeptide, GPLG + human vitronectin positions 56-459 (protein)
chain: GPLGYTVYDDGEEKNNATVHEQVGGPSLTSDLQAQSKGNPEQTPVLKPEEEAPAPEVGASKPEGIDSRPETLHPGRPQPPAEEELCSGKPFDAFTDLKNGSLFAFRGQYCYELDEKAVRPGYPKLIRDVWGIEGPIDAAFTRINCQGKTYLFKGSQYWRFEDGVLDPDYPRNISDGFDGIPDNVDAALALPAHSYSGRERVYFFKGKQYWEYQFQHQPSQEECEGSSLSAVFEHFAMMQRDSWEDIFELLFWGRTSAGTRQPQFISRDWHGVPGQVDAAMAGRIYISGMAPRPSLAKKQRFRHRNRKGYRSQRGHSRGRNQNSRRPSRATWLSLFSSEESNLGANNYDDYRMDWLVPATCEPIQSVFFFSGDKYYRVNLRTRRVDTVDPPYPRSIAQYWLGCPAPGHL
modifications: Synthetic Peptide RCP-15
[1]
  adsorptivity to a plate: favorable adsorptivity to a plate, equivalent to that of RCP-11

B6: RCP-1: recombinant polypeptide, Met + human vitronectin (SEQ ID NO:3) positions 1-55, 269-459 (protein)
chain: MDQESCKGRCTEGFNVDKKCQCDELCSYYQSCCTDYTAECKPQVTRGDVFTMPEDEPSQEECEGSSLSAVFEHFAMMQRDSWEDIFELLFWGRTSAGTRQPQFISRDWHGVPGQVDAAMAGRIYISGMAPRPSLAKKQRFRHRNRKGYRSQRGHSRGRNQNSRRPSRATWLSLFSSEESNLGANNYDDYRMDWLVPATCEPIQSVFFFSGDKYYRVNLRTRRVDTVDPPYPRSIAQYWLGCPAPGHL
modifications: Synthetic Peptide RCP-1
Human iPS cells [5]
  adhesiveness of iPS cells (in words): cell adhesion rate equivalent to that of natural vitronectin
Human iPS cells [4]; FIG. 2 and Table 8
  cell proliferation property (in words): higher cell proliferation property than that of RCP-11
Human iPS cells [4]; addition amount 80 μg/cm^2
  The Number (%) of Cells after 3 Days: 100.0%
[1]
  adsorptivity to a plate: favorable adsorptivity to a plate, equivalent to that of RCP-11
Human iPS cells [6]; FIG. 3, TESR2, subculture every six days
  form of iPS cell colonies: homogeneous colony and a form characteristic for undifferentiated cells having a high nucleus occupying rate
Human iPS cells [6]; FIG. 4, cultured for 1 month
  NANOG expression (immunostaining): strongly expressed NANOG in an overall colony
Human iPS cells [6]; cultured for 1 month
  maintenance of undifferentiated state: undifferentiated state was favorably maintained
